# Assay results reported in article PMC4390240 (PLoS ONE, 2015).
# “And” between values parts separate entries of the source, which are not always exact repeats. Equal values may be shown once.
# Columns and labels:
# [1] = molecular target: the molecule itself; test: SEC; gel chromatography (Superdex 75) at 4°C in 50 mM potassium phosphate buffer, pH 7.0, after addition of 80% (v/v) ethanol to 1 mM oxidized monomeric protein, lyophilization and resolvation with buffer
# [2] = molecular target: the molecule itself; test: differential scanning calorimetry; oxidized dimer, 100 μM (heme unit), scan rate 1°C/min, 50 mM potassium phosphate buffer, pH 7.0; dimer to monomers
protein,measurement,setting,value
"Pseudomonas aeruginosa cytochrome c 551, wild type (natural protein, UniProt P00099 23-104, looked up, heme attached covalently to two Cys residues (heme-linked Cys12 and Cys15); His16 and Met61 coordinated to the heme iron; oxidized, residues printed from Glu1; source: E. coli JCB387, purified (oxidized)) EDPEVLFKNKGCVACHAIDTKMVGPAYKDVAAKFAGQAGAEAELAQRIKNGSQGVWGPIPMPPNAVSDDEAQTLAKWVLSQK",stoichiometry N,[1],2 and 3 and 4
same,dH of dissociation of the dimer to monomers,[2],~0 kcal/mol
